The values below come from PMC9287160, “Structural insights into the function-modulating effects of nanobody binding to the integrin receptor αMβ2” (The Journal of Biological Chemistry, 2022).

This experiment addresses T1, recombinant human αMβ2 αI domain (human).
T1 construct: αI domain (von Willebrand factor type A domain) of integrin αM (CD11b), human; numbers count on: the mature protein; PDB 4M76 (cited) holds an αI–C3d complex of the same laboratory; also called hαI; human αI domain
T1 chain: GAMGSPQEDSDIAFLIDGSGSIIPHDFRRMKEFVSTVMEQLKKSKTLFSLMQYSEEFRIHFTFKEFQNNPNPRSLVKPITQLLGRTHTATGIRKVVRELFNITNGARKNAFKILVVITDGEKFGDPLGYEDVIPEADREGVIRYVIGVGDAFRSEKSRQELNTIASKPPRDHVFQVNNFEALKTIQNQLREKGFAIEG
As to the kind of experiment: BLI; His-tagged hCD11bNb1 on anti-penta-HIS sensors; αMβ2 HP 6.25-50 nM or αI domain 0.8-25 nM in solution; 30 °C; 20 mM Hepes pH 7.5, 150 mM NaCl, 5 mM MgCl2, 1 mM CaCl2; 1:1 model; triplicates; apparent. Conditions: both partners purified. In general terms: BLI is a label-free optical method that tracks binding on a fibre tip over time.

B1: nanobody hCD11bNb1 (His-tagged) (VHH)
VHH: QVQLVETGGGLVQAGGSLRLSCAASGNINSFNAMGWFRQAPGKQRELVAAITFGGRTNYADSVKGRFTISRDNTKGSVYLQMNSLKPEDTAVYYCAASENNLLTGVWHYWGRGTQVTVSS
notes: nanobody selected by phage display from a llama immunised with the αMβ2 HP; they are in PDB 7NP9 (nanobody alone) and PDB 7P2D (complex); Captured through its His tag on anti-penta-HIS BLI sensors. pET-22b(+) usually adds a C-terminal His6 (surmise); also called parental hCD11bNb1; WT hCD11bNb1
Turning to B1, the Kd fell in the range of 1 to 6 nM.
